Experimental findings from patent US20250262244A1 (published 2025) are described below.

Experiment [1] addresses T1, EWSR1/WT1 fusion protein (junction of EWS and WT1) peptide on HLA-A*03 (human).
T1 peptide: SSYGQQSEK
The experiment in a line: multimer staining.

For experiment [2], the target named is T1, EWSR1/WT1 fusion protein (junction of …). The experiment in a line: cytokine release.
The target of experiment [3] is T2, EWSR1/WT1 fusion protein (junction of EWS and WT1) peptide on HLA-A*11 (human).
T2 peptide: SSYGQQSEK
The experiment in a line: cytokine release.

B1: TCR14 (TCR, V domains shown)
Valpha: GQQLNQSPQSMFIQEGEDVSMNCTSSSIFNTWLWYKQDPGEGPVLLIALYKAGELTSNGRLTAQFGITRKDSFLNISASIPSDVGIYFCAGQGASGTYKYIFGTGTRLKVLA
Vbeta: DAGVIQSPRHEVTEMGQEVTLRCKPISGHNSLFWYRQTMMRGLELLIYFNNNVPIDDSGMPEDRFSAKMPNASFSTLKIQPSEPRDSAVYFCASSPGTSDEFFGPGTRLTVL
Regarding B1, the binding result in experiment [1] is “recognises”.

B2: TCR12 (TCR, V domains shown)
Valpha: AQKVTQAQTEISVVEKEDVTLDCVYETRDTTYYLFWYKQPPSGELVFLIRRNSFDEQNEISGRYSWNFQKSTSSFNFTITASQVVDSAVYFCALSEMQGGSEKLVFGKGTKLTVNP
Vbeta: DSGVTQTPKHLITATGQRVTLRCSPRSGDLSVYWYQQSLDQGLQFLIHYYNGEERAKGNILERFSAQQFPDLHSELNLSSLELGDSALYFCASSTSSGSPDTQYFGPGTRLTVL
For B2, the binding result in experiment [1] is recorded as “recognises”.

B3: TCR15 (TCR, V domains shown)
Valpha: QKEVEQDPGPLSVPEGAIVSLNCTYSNSAFQYFMWYRQYSRKGPELLMYTYSSGNKEDGRFTAQVDKSSKYISLFIRDSQPSDSATYLCAMGGGSNYKLTFGKGTLLTVNP
Vbeta: DSGVTQTPKHLITATGQRVTLRCSPRSGDLSVYWYQQSLDQGLQFLIQYYNGEERAKGNILERFSAQQFPDLHSELNLSSLELGDSALYFCASSPPGQTNYGYTFGSGTRLTVV
With B3, the binding result in experiment [2] and in experiment [3] was “recognises” in each case.
